# Experimental data reported in article PMC4776142, “Comparative evaluation of p5+14 with SAP and peptide p5 by dual-energy SPECT imaging of mice with AA amyloidosis” (Scientific Reports, 2016).
# Assays:
# [1] = system: amyloid-free organs of WT mice; experiment: Dual-energy tissue biodistribution in amyloid-free WT mice; format: in vivo, mouse; conditions: n = 5, SAP 24 h and p5+14 4 h post injection
# Experimental: (§1) Dual-energy comparative uptake experiments were performed in individual AA mice (5 wk post amyloid induction with AEF) and wild type mice (n = 5 per group). All SPECT/CT imaging was performed using an Inveon trimodality SPECT/PET/CT platform[37] (Siemens preclinical, Knoxville, TN). Image data were acquired and reconstructed using Inveon Acquisition Workplace (IAW) ver. 2.0.
# For the comparison of ^125I-SAP and ^99mTc-p5+14, mice were administered ^125I-SAP (45 μCi, 8 μg) and 20 h thereafter received ^99mTc-p5+14 (110 μCi, 5 μg). Mice were euthanised 4 h after injection of the ^99mTc-p5+14. The image data for the low and high energy radionuclides were obtained sequentially by acquiring 60, 16-second projections in a total of 1.5 revolutions. […]
# For comparison of the p5+14 and p5 peptides, mice were injected IV in the lateral tail vein with a mixture of ^125I-p5+14 (150 μCi, ~3 μg) and ^99mTc-p5 (300 μCi, ~8 μg) and the mice euthanised by an overdose of isoflurane anaesthetic 1 h post injection. […] The radioactivity in the low and high energy windows (^125I and ^99mTc, respectively) was measured using an automated Wizard 3 gamma counter (1480 Wallac Gamma Counter, Perkin Elmer) with a crossover correction from the high to low energy channel of 4.6%, applied manually. Biodistribution data were expressed as percent injected dose per gram (%ID/g) of tissue.
# [2] = target: T1, AA amyloid in H2/IL-6 mice (Mus musculus, UniProt P05367); experiment: Dual-energy tissue biodistribution of 125I-SAP and 99mTc-p5+14 in AA mice; format: in vivo
# T1 construct: Systemic distribution of AA amyloid in H2/IL-6 mice; from tissue; host or cells: organs of living H2/IL-6 Balb/c mice after induction with amyloid enhancing factor
# T1 sequence (P05367 20-94 limits assumed): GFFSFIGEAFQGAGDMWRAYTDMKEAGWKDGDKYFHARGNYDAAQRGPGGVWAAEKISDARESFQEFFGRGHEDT
# Experimental: Transgenic H2-L^d-huIL-6 Balb/c mice (H2/IL-6) constitutively express the human IL-6 transgene leading to chronic, severe inflammation and the overproduction of acute phase reactants, such as serum amyloid protein A, the precursor protein of systemic, inflammation-associated (AA) amyloidosis. Amyloid deposition was induced in 8–wk old female mice by IV injection of 100 μg of amyloid enhancing factor (AEF – an insoluble preparation of amyloid fibrils isolated from the spleen of mice with AA amyloidosis) suspended in sterile phosphate buffered saline (PBS)[34]. All animal procedures were performed in accordance with protocols approved by the University of Tennessee Animal Care and Use Committee. The University of Tennessee is an Association for Assessment and Accreditation of Laboratory Animal Care International (AAALAC-I) accredited institution.
# as §1
# For the comparison of ^125I-SAP and ^99mTc-p5+14, mice were administered ^125I-SAP (45 μCi, 8 μg) and 20 h thereafter received ^99mTc-p5+14 (110 μCi, 5 μg). Mice were euthanised 4 h after injection of the ^99mTc-p5+14. The image data for the low and high energy radionuclides were obtained sequentially by acquiring 60, 16-second projections in a total of 1.5 revolutions. A 1 mm-diameter aperture, five-pinhole (mouse whole body) collimator was used at 30 mm from the centre of the field of view. The image data in the appropriate energy window were reconstructed using a Maximum A Priori algorithm (MAP - 16 iterations, 6 subsets, β = 1) onto a matrix with x and y dimensions of 88 and z dimension of 312 and 0.5-mm isotropic voxels. Post hoc attenuation correction was then applied to reconstructed data using CT image data. Scatter correction was performed using a SPECT triple energy window (TEW) method.
# For comparison of the p5+14 and p5 peptides, mice were injected IV in the lateral tail vein with a mixture of ^125I-p5+14 (150 μCi, ~3 μg) and ^99mTc-p5 (300 μCi, ~8 μg) and the mice euthanised by an overdose of isoflurane anaesthetic 1 h post injection. Tissues were harvested at necropsy for biodistribution measurements. Organs were also harvested from mice injected with ^125I-SAP and ^99mTc-p5+14 after SPECT/CT imaging. A small volume of tissue from each mouse was placed into a tared plastic vial and weighed. The radioactivity in the low and high energy windows (^125I and ^99mTc, respectively) was measured using an automated Wizard 3 gamma counter (1480 Wallac Gamma Counter, Perkin Elmer) with a crossover correction from the high to low energy channel of 4.6%, applied manually. Biodistribution data were expressed as percent injected dose per gram (%ID/g) of tissue.
# Skewness and kurtosis statistics were used to assess the statistical assumption of normality for between-subjects comparisons and correlations. Any skewness or kurtosis statistic above an absolute value of 2.0 assumed a non-normal distribution. The assumption of homogeneity of variance was tested with Levene’s Test of Equality of Variances. Independent samples t-tests were used to compare p5+14 and SAP retention in amyloid laden organs (liver, spleen, pancreas, intestines and heart). Means and standard deviations were reported for the analyses. If a statistical assumption was violated, a non-parametric Mann-Whitney U test was used. Medians and interquartile ranges (IQR) were reported for non-parametric statistics. Pearson correlations were run to compare tissue biodistribution data (%ID/g) in all organs. […]
# [3] = AA mice 5 wk post-AEF, n = 5, 125I-SAP 45 μCi, 8 μg, 24 h post injection, crossover-corrected
substance,measurement,setting,value
125I-SAP: purified human SAP radioiodinated with 125I,Retention in amyloid-free organs,[1],no retention
same,"Tissue biodistribution, heart, Mean ± SD",[2]; [3],0.7 ± 0.1 %ID/g
same,"Tissue biodistribution, intestine, Mean ± SD",[2]; [3],0.8 ± 1.1 %ID/g
same,"Tissue biodistribution, liver, Mean ± SD",[2]; [3],14.1 ± 3.5 %ID/g
same,"Tissue biodistribution, pancreas, Median (Interquartile range)",[2]; [3],0.7 (0.5)[3] %ID/g
same,"Tissue biodistribution, spleen, Mean ± SD",[2]; [3],23.8 ± 3.5 %ID/g
same,Uptake in the spleen as compared to 99mTc-p5+14,"[2]; AA mice, in each mouse studied, p < 0.001",~ 4 fold
same,Uptake by pancreatic AA amyloid,"[2]; AA mice, 125I-SAP, 24 h post injection",< 1 %ID/g
